Results on one molecule are retold here after US20200354474A1 (BROWN UNIVERSITY, published 2020).

In assay [1] the target is T1, human Chi3l1 (chitinase 3-like-1) (human, UniProt P36222 22-383).
T1 construct: also called YKL-40; recombinant (r) human Chi3l1
As to the kind of experiment: Western blot and ELISA, denaturing and non-denaturing conditions. (In general: Immunoblotting shows a protein as a band on a membrane.)

Assay [2] deals with T2, mouse Chi3l1 (chitinase 3-like-1) (mouse, UniProt Q61362 30-389, limits assumed).
T2 construct: Recombinant mouse Chi3l1; also called murine Chi3l1; Chil1 (printed 'Chill')
T2 sequence (Q61362 30-389 limits assumed): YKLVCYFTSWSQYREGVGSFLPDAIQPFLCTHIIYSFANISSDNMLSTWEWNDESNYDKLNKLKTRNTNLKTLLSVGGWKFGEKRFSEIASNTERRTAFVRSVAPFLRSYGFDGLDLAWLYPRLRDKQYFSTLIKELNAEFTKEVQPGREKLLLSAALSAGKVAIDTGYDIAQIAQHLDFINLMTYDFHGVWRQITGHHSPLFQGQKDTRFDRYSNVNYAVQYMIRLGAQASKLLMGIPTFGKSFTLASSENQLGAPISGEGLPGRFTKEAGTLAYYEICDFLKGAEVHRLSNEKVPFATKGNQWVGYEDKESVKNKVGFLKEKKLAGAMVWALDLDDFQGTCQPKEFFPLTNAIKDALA
Described as above.

T1 sequence (P36222 22-383 limits assumed): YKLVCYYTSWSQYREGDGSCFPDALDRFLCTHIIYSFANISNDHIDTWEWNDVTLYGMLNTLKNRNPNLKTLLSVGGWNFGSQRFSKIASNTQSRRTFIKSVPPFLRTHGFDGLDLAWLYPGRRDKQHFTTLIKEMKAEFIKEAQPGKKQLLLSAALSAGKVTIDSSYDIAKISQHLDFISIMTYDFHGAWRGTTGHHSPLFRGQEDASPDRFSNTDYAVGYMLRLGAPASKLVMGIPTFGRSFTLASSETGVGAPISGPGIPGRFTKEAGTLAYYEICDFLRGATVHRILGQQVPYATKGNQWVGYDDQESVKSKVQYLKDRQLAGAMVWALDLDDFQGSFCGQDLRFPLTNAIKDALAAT

B1: FRG monoclonal antibody (antibody, V domains shown)
VH: QIQLVQSGPELKKPGETVKISCKASGYTFTNYGMNWVKQAPGKGLKWMGWINTYTGEPTYADDFKGRFAFSLETSASTAYLQINNLRNEDMSTYFCARLGYGKFYVMDYWGQGTSVTVSS
VL: DVVMTQTPLSLPVSLGDQASISCRSSQSLVHSNGNTYLHWYLQKPGQSPKLLIYKVSNRFSGVPDRFSGSGSGTDFTLKISRVEAEDLGVYFCSQSTHVTWTFGGGTKLEIK
notes: also called FRG mAb; anti-Chi3l1-FRG
Take B1: the binding result in assay [1] and in assay [2] was “binds” each time.
